The subject of assay [1] is NUGC-4. Description: MTT Cell Proliferation Assay, NUGC-4. Format: cell-based, human. The note with it: 120 hours of exposure. An excerpt: This Example describes characterization of the cytotoxic activity of herein described anti-BKB2R monoclonal antibodies against a panel of cancer cell lines. BxPC-3 is a human adenocarcinoma cell line originally isolated from the pancreas (pancreatic cancer) (ATCC # CRL-1687; Tan et al., Cancer Invest. 4: 15-23, 1986. PubMed: 3754176). MV-4-11 is a human biphenotypic B myelomonocytic leukemia (mixed-lineage leukemia, MLL-AF4) cell line originally isolated from the peripheral blood (ATCC # CRL-959; Lange et al., Blood 70: 192-199, 1987. PubMed: 3496132). Hep G2 is a human hepatocellular carcinoma cell line isolated from the liver (liver cancer) (ATCC # HB-8065; Aden et al., Nature 282: 615-616, 1979. PubMed: 233137). RS4;11 is a human acute lymphoblastic leukemia (mixed-lineage leukemia, MLL-AF4) cell line isolated from the bone marrow (ATTC # CRL-1873) Stong et al., Blood 65: 21-31, 1985. PubMed: 3917311). HT-29 is a human colorectal adenocarcinoma (ATTC # HTB-38) cell line isolated from the colon (colon cancer). Fogh et al., J. Natl. Cancer Inst. 58: 209-214, 1977. PubMed: 833871). NUGC-4 is a human stomach carcinoma isolated from the stomach paragastiric lymph node (JCRB # JCRB0834; Akiyama et al., Jpn. J. Surg., 18: 438-446, 1988). […]
The anti-proliferative activity of test compounds against the indicated cell lines was evaluated in vitro using the ATCC's MTT Cell Proliferation Assay (Catalog No. 30-1010K). After the 120 hour incubation with drug (e.g., anti-BKB2R mAb or cisplatin), cell proliferation was measured by addition of MTT reagent to each well and incubation for an additional 4 hrs. […] Optical absorbance (570 nm) of the test wells was measured and then quantitated relative to control wells that received no drug. Results were expressed as percent inhibition versus compound concentration and graphed, as shown in FIGS. 19-25, for cell lines BxPC-3, MV-4;11, HepG2, RS-4;11, HT-29, NUGC-4, and PC-3, respectively.

For assay [2], the system named is ZDF fa/fa rats. Description: 21-day ZDF fa/fa study: glycated hemoglobin HbA1c. Format: in vivo, rat. The note with it: day 21. The procedure: Animals. Male ZDF fa/fa rats were obtained from CRL (Kingston, N.Y.). Upon arrival, rats were seven weeks of age. The rats were housed individually per cage in a room with a photo cycle of 12 hours of light and 12 hours of dark and an ambient temperature of 70-72° F. and fed on regular rodent diet and water ad libitum. At the age of eleven weeks, rats were divided into six groups (Table 5) of eight rats per group based on fasting blood glucose levels. A sub-group of four rats per group was maintained in parallel to the main groups and was dosed similarly for twenty-one days for a hyperinsulinemic-euglycemic clamp study. […]
An oral glucose tolerance test (OGTT) was performed on Day 0, 7, 14 and 21 for each group of the study. Plasma samples were collected at each time point during OGTT to also measure insulin levels. Body weight, food and water intake were measured twice a week. Blood pressure and heart rates were monitored on Day 0, 7, 14 and 21 using a non-invasive tail cuff method (with five readings per rat taken and then averaged). Fasting serum samples were collected on Day 0, 7, 14 and 21 before OGTT for determination of triglyceride and total cholesterol level. Urine samples were collected on Day 7 and 14 for the determination of glycosuria. Glycated (Glycosylated) hemoglobin (HbA1c) was measured at the end of the study. Assay kits for these studies were as presented in Table 6, and were used according to the suppliers' instructions.
The mean change in fasting blood glucose (mg/dL), serum cholesterol (mg/dL) and systolic blood pressure (mm Hg) from baseline ([…]) and negative control (MG2b-57, 0.2 mg/kg) groups using an analysis of covariance to adjust for baseline levels. […] A significance level of a=0.05 was used for all tests, and all analyses were conducted using SAS statistical software (vs. 9.2, Cary, N.C., U.S.A.).

B1: 5F12G1: murine monoclonal anti-BKB2R antibody (IgG2b,κ), VH comprising SEQ ID NO:1, VL comprising SEQ ID NO:2 (antibody, listed as Mus musculus, V domains shown)
VH: EVKLEESGGGLVQPGGSMKLSCVVSGFTFSDYWMSWVRHSPEMGLEWVAEIRLKSDNYATHYAESVKGRFTISRDDSKSRLYLQINSLRGEDTGIYYCTRDYYAMEYWGQGTSVTVSS
VL: DVVMTQTPLSLPVSLGDQASISCRSSQTIVHSNGKTYLEWYLQKPGQSPKLLIYKVSNRFSGVPDRFSGSGSGTEFTLKISRVETEDLGVYYCFQASHVPYTFGGGTKLEIK
As to B1, in assay [1], the “EC 50 Values (ng/ml) NUGC-4” value worked out at 47000 ng/mL. Also, in assay [2] (0.2 mg/kg s.c. every 3 days (high dose)), the “percent glycosylated hemoglobin A1c (HbA1c)” value is listed as 6.3+/−0.5%. In assay [2] (0.2 mg/kg s.c. every 3 days vs MG2b-57 0.2 mg/kg), the “difference in percent HbA1c between the high dose and negative control animals” value was −2.58+/−0.85%.

The values above are taken from patent publication US20140017242A1, “ANTI-BRADYKININ B2 RECEPTOR (BKB2R) MONOCLONAL ANTIBODY” (Diamedica, Inc., priority 2010, published 2014).
